Results reported in patent US20080311122A1, “Antagonists of Hmgb1 and/or Rage and Methods of Use Thereof” (Medimmune, LLC, priority 2005, published 2008).
“Also recorded” adds a separate entry of the source.

How the values were obtained:
[1] = test system: HMG1 stimulated cytokine gene expression in mouse macrophages; assay: Taqman analysis of mouse macrophages (mMØ) stimulated with HMG1; format: cell-based; conditions: rHMG1
Description: Taqman Analysis of Mouse Macrophages (mMØ) Stimulated with HMG1: Mouse bone marrow was harvested by rinsing the femurs of normal C57BL/6 mice. The isolated bone marrow cells were then cultured in Dulbecco's modified Eagle's medium (DMEM) supplemented with 10% fetal bovine serum (FBS) and 50 ng/ml M-CSF for 24 h, nonadherent cells were collected and grown for 6 days in complete DMEM supplemented with 10% FBS and 50 ng/ml M-CSF in T-75 flasks (1×10^7 cells/15 ml/flask). On day 6, adherent cells were harvested and reseeded with 5 ng/ml MCSF in α-MEM containing 10% FBS in 96-well plates (1×10^5 cells/200 μl/well) overnight.
The culture medium was replaced with α-MEM and incubated for 2 hours before stimulation to starve cells. HMGB1 (recombinant CBP-HMGB1 fusion protein generated from E. coli at 10 μg/ml), mouse-RAGE-Fc or human-RAGE-Fc fusion protein were pre-mixed with various blocking reagents at 100 μg/ml in α-MEM for 20 min at RT, then 100 μl of the mixtures was added to the cells and incubated at 37° C. for 2 hours. The supernatant was then removed, and the RNA was extracted using Ambion's MagMAX™-96 Total RNA Isolation Kit. All of the recovered RNA were used in a reverse transcriptase (RT) reaction with SuperScript™ III and oligo(dT) primer (Invitrogen) for synthesis of cDNA. 1 μl or 2 μl of the resulting cDNA was used for real time quantitative PCR analysis (TaqMan) using ABI Prism 7700 or 7000.

HMG1 peptides = assay: HMG1 B Box and peptide mapping ELISA; format: binding; conditions: overlapping HMGB1 peptides
Description: HMG1 B Box and Peptide Mapping: Individual wells of a 96-well immunoplate (EIA/RIA plate, High binding, Costar) were coated with HMG1 B Box peptide amino acids 91-169 (FIG. 5A) or amino acids 150-183 (FIG. 5B) at 10 μg/ml in PBS at 4° C. overnight. The plate was then blocked with 4% milk powder dissolved in PBS at 37° C. for 1 hour. The blocking solution was removed and replaced with human anti-HMG1 antibodies at various concentrations (see FIGS. 5A-B). The plate was then washed (ELX-405 Plate washer, BIO-TEK) and secondary antibody (anti-human IgG-HRP, PIERCE) was added at a final concentration of 1:125,000 at 37° C. for 1 hour. HRP activity was detected with Sureblue HRP substrate (KPL). Plates were read at 450 nm using a Kinetic Microplate Reader (Molecular Devices). To obtain more detailed peptide mapping information, similar ELISA assays were performed using 16 biotinylated overlapping peptides spanning the HMGB1 protein from amino acid 1 to 215 as follows, maxisorp microtiter plate was coated with 2 μg/ml of NeutroAvidin (Pierce) overnight at 4° C. After washing and blocking with 1% BSA in PBS, the biotinylated peptides were individually added into the avidin coated wells and incubated for 30 min at room temperature. The serial diluted antibody G4, S16 and S6 at the initial concentration at 10 μg/ml were then transferred into the wells followed by adding mouse anti human IgG-HRP conjugate (Pierce). Detection was accomplished by adding 50 μl of tetramethylbenzidine (TMB) substrate (KPL) and the absorbance was read at […]. The peptides used were amino acids: 46-63; 61-78; 76-93; 91-108; 106-123; 136-153; 151-168; 166-183; 179-185; 181-198; and 196-215.

[2] = test system: Tx-HMGB1+LPS stimulated IL-6 release (TLR4 signaling); assay: Inhibition of HMG1 mediated enhancement of TLR signaling, Tx-HMGB1+LPS in human PBMCs; format: cell-based
Description: Cytokine Release Assays: Human PBMCs were treated with rHMG1 in the presence or absence of Polymyxin B (FIG. 20). Human PBMCs were treated with rHMG1 and Tx-HMGB1 at concentrations up to 4 μg/ml (FIG. 21). ˜16 μg/mL (512 nM) Tx-HMGB1 was incubated with 61.5 EU/mL (6.15 ng/mL; approx. 0.615 nM) LPS overnight at 4° C. The sample was diluted as indicated and added to human PBMCs (FIG. 22). In all assays the cells were incubated overnight at 37° C., 5% CO2 and the supernatants were assayed for cytokine levels by Bioplex assay. When present Polymyxin B was used at 8 U/mL.
Inhibition of HMG1 Mediated Enhancement of TLR Signaling: Human PBMCs were treated with Tx-HMGB1+LPS (as described above) in combination with either the Anti-HMG1 antibody E11, S16 or G4, anti-TLR4 antibody, or isotype control antibodies (R3, IgG2a) and incubated overnight at 37° C., 5% CO2 in the presence of 8 U/mL Polymyxin B. The supernatants were assayed for cytokine levels (FIG. 22, right panel).

[3] = test system: mouse CLP model of sepsis; assay: Cecal ligation and puncture (CLP) model of sepsis; format: in vivo; conditions: percent protection, isotype control subtracted
Description: Anti-HMGB1 in Sepsis: To establish live intra-abdominal infection and sepsis, Balb/C mice (9-11 per group) were subjected to the CLP procedure as described previously (Fink and Heard, 1990, J Surg Res 49:186-196; Wichmann et al., 1996, J Surg Res 65, 109-114). After anesthesia with an intramuscular injection of ketamine (75 mg/kg, Fort Dodge Laboratories, Fort Dodge, Iowa) and xylazine (20 mg/kg, Bochringer Ingelheim), a 15-mm midline incision was made to expose the cecum. After ligation 5.0 mm from the tip, the cecal stump was punctured once with a 22-gauge needle, and small amount of stool (1-mm length) was extruded. The cecum was placed back into its normal intra-abdominal position, and the wound was closed with two layers of running suture. All animals received saline-solution (0.9% s.c., 20 ml/kg of body weight) resuscitation, and a single dose of antibiotic (0.5 mg of imipenem per mouse in 200 μl of sterile saline injected s.c.) (Primaxin, Merck) 30 min after surgery.
Anti-HMG1 antibodies or isotype control antibodies (50 μg/mouse in a 200 μl volume), were administered intraperitoneally at 24 and 48 hours, post surgery. In certain follow up experiments anti-HMG1 antibodies or isotype control antibodies (8 mg/kg) were administered intraperitoneally at 24 hours, post surgery (FIG. 11C-D). These experiments were blinded—the surgeons randomized the cages, and the encoded antibodies were dosed by another investigator. The survival of the mice was monitored twice daily for a total of 14 days. The survival curves for several representative experiments where the antibodies were delivered at 50 μg/mouse at times 24 and 48 are shown in FIGS. 11A and 11B. The survival curve generated by combining several representative experiments where the antibodies were delivered at 8 mg/kg 24 hours post surgery is shown in FIG. 11C. Several additional antibodies and the oligoclonal antibody pool were tested at 8 mg/kg administered 24 hours post surgery (FIG. 11D).

Row | Molecule | inhibition of HMG1-induced IL-1β gene expression [1] | detailed peptide mapping / domain recognized (HMG1 peptides) | inhibition of Tx-HMGB1+LPS induced IL-6 release [2] | in vivo CLP [3] | inhibition of HMG1-induced TNF-a gene expression [1]
1 | E11: human anti-HMG1 antibody, recognizes HMG1 A-Box; VL/VH aa SEQ ID NO: 24/26 (antibody, listed as Homo sapiens, V domains shown) VH: EVQLLESGGGLVQPGGSLRLSCAASGFTFSRYQMNWVRQAPGKGLEWVSSISPSGGHTHYADSVKGRFTISRDNSKNTLYLQMNSLRAEDTAVYYCAKDGRQGKISTVDHWGQGTLVTVSS VL: AQDIQMTQSPGTLSLSPGERATLSCRASQSVRSNFLAWYQQKPGQAPRLLIYGASRRASGIPDRFSGSGFGADFTLSISRLEPEDFAVYYCQQYGSSPNTFGQGSRVEIK | significantly reduce HMG1-induced IL-1b gene expression; also recorded: robustly inhibited | recognizes the HMG1 A-Box | reduction in IL-6 release to near background levels; also recorded: block the Tx-HMG1 mediated enhancement of TLR4 signaling; also recorded: can be inhibited | 35% | –
2 | S16: human anti-HMG1 antibody, ATCC PTA-6259; VL/VH aa SEQ ID NO: 13/15 (antibody, listed as Homo sapiens, V domains shown) VH: EVQLLESGGGLVQPGGSLRLSCAASGFTFSWYSMLWVRQAPGKGLEWVSYISPSGGFTNYADSVKGRFTISRDNSKNTLYLQMNSLRAEDTAVYYCARWDYNSGWYYDHWGQGTLVTVSS VL: AQDIQMTQSPDTLSLSPGERATLSCRASQSVNSRNLAWYQQKPGQAPRLLIYGASTRATGIPDRFSGSVSGTEFTLTISSLQPDDFATYYCQQYNSYFTFGQGTKLEIK | – | strongest binding to the B-box peptide 91-108 with lesser binding to peptides 166-183 and 179-186; also recorded: binds the B-box peptide 91-108 and to a lesser extent peptides 166-183 and 179-186 | reduction in IL-6 release to near background levels; also recorded: block the Tx-HMG1 mediated enhancement of TLR4 signaling; also recorded: can be inhibited | 60-75% | –
3 | G2: human anti-HMG1 IgG1 from Fab phage display library; VL/VH aa SEQ ID NO: 30/32 (antibody, listed as Homo sapiens, V domains shown) VH: EVQLLESGGGLVQPGGSLRLSCAASGFTFSWYKMQWVRQAPGKGLEWVSGISPSGGSTAYADSVKGRFTISRDNSKNTLYLQMNSLRAEDTAVYYCAKMGLFNTGNSYVDYWGQGTLVTVSS VL: AQSELTQPPSVSEAPGQRVTISCSGSTSNIGNNAVIWYQQLPGKAPKLLIYYDDLLPSGVSDRFSGSKSGTSGSLAISGLQSEDEADYYCASWDDNLNGPLFGGGTKLTVL | significantly reduce HMG1-induced IL-1b gene expression; also recorded: robustly inhibited | – | – | 60% | significantly reduce HMG1-induced TNF-α gene expression; also recorded: robustly inhibited
